Measured values taken from PMC6872149, “Protein:Protein interactions in the cytoplasmic membrane apparently influencing sugar transport and phosphorylation activities of the e. coli phosphotransferase system” (PLoS ONE, 2019).

Target: MtlA (mannitol PTS Enzyme IIC-IIB-IIA) fused to the T25 domain (pKNT25-mtlA) (E. coli, UniProt P00550 1-637)
Assay: cell-based or functional assay

MtlA (mannitol PTS Enzyme IIC-IIB-IIA) fused to the T25 domain (pKNT25-mtlA), sequence (P00550 whole entry, the tested form may be a part): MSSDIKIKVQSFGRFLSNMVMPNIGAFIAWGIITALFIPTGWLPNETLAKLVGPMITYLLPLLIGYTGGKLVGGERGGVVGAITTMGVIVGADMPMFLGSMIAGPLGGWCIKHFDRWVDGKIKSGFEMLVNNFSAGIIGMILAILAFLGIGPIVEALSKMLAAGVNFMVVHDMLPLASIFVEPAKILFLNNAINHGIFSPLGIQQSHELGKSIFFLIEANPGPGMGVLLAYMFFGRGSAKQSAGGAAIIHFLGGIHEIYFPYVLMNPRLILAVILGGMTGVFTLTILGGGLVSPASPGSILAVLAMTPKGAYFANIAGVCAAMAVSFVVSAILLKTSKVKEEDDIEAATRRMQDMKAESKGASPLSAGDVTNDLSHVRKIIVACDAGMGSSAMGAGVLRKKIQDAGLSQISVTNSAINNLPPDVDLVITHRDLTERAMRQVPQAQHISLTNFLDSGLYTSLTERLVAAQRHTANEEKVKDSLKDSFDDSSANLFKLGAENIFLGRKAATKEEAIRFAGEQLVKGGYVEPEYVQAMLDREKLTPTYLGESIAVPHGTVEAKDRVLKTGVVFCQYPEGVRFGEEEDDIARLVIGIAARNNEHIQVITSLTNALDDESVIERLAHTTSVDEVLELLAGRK

B1: FruB (fructose PTS IIA-FPr) fused to the T18 domain (pUT18-fruB) (natural protein, E. coli, UniProt P69811 1-376, looked up)
chain: MFQLSVQDIHPGEKAGDKEEAIRQVAAALVQAGNVAEGYVNGMLAREQQTSTFLGNGIAIPHGTTDTRDQVLKTGVQVFQFPEGVTWGDGQVAYVAIGIAASSDEHLGLLRQLTHVLSDDSVAEQLKSATTAEELRALLMGEKQSEQLKLDNEMLTLDIVASDLLTLQALNAARLKEAGAVDATFVTKAINEQPLNLGQGIWLSDSAEGNLRSAIAVSRAANAFDVDGETAAMLVSVAMNDDQPIAVLKRLADLLLDNKADRLLKADAATLLALLTSDDAPTDDVLSAEFVVRNEHGLHARPGTMLVNTIKQFNSDITVTNLDGTGKPANGRSLMKVVALGVKKGHRLRFTAQGADAEQALKAIGDAIAAGLGEGA
B1 was tested, and the “PEP-dependent [14C]mannitol phosphorylation in vitro, activity ratio (Enzyme II plus FruB / Enzyme II alone); purified His-FruB 0.23 μM added to crude extract Cr.Ext-ΔfruBKA-pMAL (no FruA)” value was 1.2 ratio, the “PEP-dependent [14C]mannitol phosphorylation in vitro, activity ratio (Enzyme II plus FruB / Enzyme II alone); purified His-FruB 0.23 μM added to membrane pellets MP-WT-pMAL (no fruA overexpression)” value was 1.5 ratio and the “PEP-dependent [14C]mannitol phosphorylation in vitro, activity ratio (Enzyme II plus FruB / Enzyme II alone); purified His-FruB 0.23 μM added to membrane pellets MP-WT-pMAL-fruA (fruA overexpressed)” value was 8.6 ratio. For the same binder, the “PEP-dependent [14C]mannitol phosphorylation in vitro, activity ratio (Enzyme II plus FruB / Enzyme II alone); purified His-FruB 0.23 μM added to membrane pellets MP-ΔfruBKA-pMAL (no FruA)” value was 1.2 ratio.
